Assay results published in US6602687B1, “DNA encoding human ciliary neurotrophic factor and method for producing the protein encoded thereby” (Regeneron Pharmaceuticals, Inc., priority 1989, dated 2003).
“And” between values parts separate entries of the source, which are not always exact repeats. Identical values can stand only once.

Legend:
[1] = system: Ventral spinal cord neurons; test: E14 rat ventral spinal cord neuron cultures in defined medium; assay type: cell-based; details: CNTF 2 μl/ml
Text: (§1) Sprague-Dawley rats (HSD) were used for all experiments. Pregnant rats were sacrificed by carbon dioxide asphyxiation, and the embryos were rapidly removed and placed in ice-cold Puck's saline G for further dissection.
(§2) Spinal cords were removed aseptically from rat embryos on the 14th day of gestation. The spinal cord was severed caudal to the bulb, freed of sensory ganglia and meninges. The cord was then subdivided into ventral and mediodorsal segments for separate cultures. The cord tissues were minced into small pieces and mechanically dissociated by trituration through a Pasteur pipet in defined culture medium consisting of 50% basal medium Eagle (BME; Gibco) and 50% Ham's nutrient mixture F12 (Gibco) supplemented with glucose (33 mM), glutamine (2 mM, NaHCO3 (15 mM), HEPES (10 mM), insulin (25 μg/ml), transferrin (100 μg/ml) putrescine (60 μM), progesterone (20 nM), Na selenite (30 nM), penicillin G (0.5 μg/ml), streptomycin (0.5 μg/ml), and bovine serum albumin (2.5 μg/ml). Trituration was repeated twice and the supernatants were pooled and filtered through a nylon (Nitex, Tetko) filter (40 μm). Total cell number yielded was determined by hemocytometer counting in the presence of trypan blue. Dissociated ventral cells were then plated at a density of 0.5 million cells/35 mm dish coated with poly-D-lysine (10 μg/ml). Dissociated mediodorsal cells were plated at a density of 1.5 million/35 mm dish coated with poly-D-lysine (10 μg/ml), poly-L-ornithine (10 μg/ml), or poly-L-ornithine with laminin (5 μg/ml). Treatments to these cultures were added at the time of plating. Cultures were maintained at 37° C. in a 95% air/5% CO2 atmosphere at nearly 100% relative humidity. Culture medium was changed every three to four days.

hippocampal neurons = test: Glutamate-induced toxicity in hippocampal cultures (MTT assay); assay type: cell-based, rat; details: in the presence of CNTF (10 ng/ml)
Protocol: FIG. 38. Protective effect of CNTF on glutamate-induced toxicity in hippocampal cultures. […] Glutamate at various concentations (100-1000 uM) was added for 15 minutes, after which the cells were cultured in the absence of glutamate or CNTF for 20 h. Survival of cells at the end of the culture period was assessed by MTT assay based on the conversion of MTT (3-(4,5-dimethylthiazol-2-yl)-2,5-diphenyl tetrazolium bromide) to a purple product by vital cells. MTT dye was added to a final concentration of 0.5 mg/ml. Dyes taken up by live cells were solubilized by the addition of 0.08N HCI in isopropranol 5 hours later, and O.D. (570-650 nm) was measured.
The effect of CNTF on GABAergic neurons was dependent on the density at which the cells were plated. […] This may be due to an elevated level of neurotrophic factors in high density cultures. […] We have assessed the neurotoxic effects of various concentrations of glutamate (10-1000 μM) by means of a calorimetric MTT assay, as shown in FIG. 38. At a concentration of 1 mM, glutamate reduced cell survival to approximately 10%. In the presence of CNTF ([…]), cell survival following exposure to glutamate was enhanced.

[2] = system: motorneurons in the facial nerve nuclei; test: Unilateral facial nerve lesion in newborn rat with gelfoam implant, motorneuron count; assay type: in vivo
Protocol: The facial nerves of newborn rat pups were sectioned unilaterally and small gelfoam implants containing either 5 μg bovine serum albumin or 5 μg CNTF were placed at the lesion sites. […] After one week, the animals were sacrificed and sections of their brainstem, containing a facial nerve nucleus on the same side as the lesioned nerve (ipsilateral to the lesion) and a facial nerve nucleus on the side opposite to the lesion (contralateral to the lesion) were produced. The contralateral facial nucleus served as an internal control. Facial nucleus sections were stained with either Nissl stain (to stain motorneurons) or with antibody to glial fibrillary acidic protein (to detect the respose of glial cells to injury).

[3] = system: Mediodorsal (MD) spinal cord neurons; test: E14 rat mediodorsal spinal cord neuron cultures in defined medium; assay type: cell-based
Text: as §1, §2

[4] = system: E18-19 rat hippocampal neurons; test: High affinity GABA uptake in hippocampal cultures; assay type: cell-based
Protocol: (§3) Hippocampi were dissected from E18-19 rat embryos of Sprague-Dawley rats, and collected in F10 medium. The tissues were minced, rinsed twice with F10 medium (Gibco) and trypsinized with 0.25% trypsin (Gibco) for 20 minutes at 37° C. Trypsin was inactivated by the addition of a serum-containing medium composed of minimal essential medium (MEM) supplemented with fetal calf serum (FCS, 10%), glutamine (2 mM), penicillin (25 U/ml) and streptomycin (25 ug/ml). Dissociated cells obtained by gentle trituration were collected and centrifuged at low speed (500 rpm) for 30 seconds. The centrifugation was repeated twice, and the cell pellets were then resuspended in serum-containing medium. The cells were then plated onto 6 mm wells or 35 mm dishes that were coated with polyornithine (10 ug/ml) and laminin (10 ug/ml). In most of the experiments, the cells were plated at a low density of approximately 71,000 cells/cm^2. Five to six hours following the plating of cells, medium was changed to a serum-free medium containing 1% N3 and penicillin-streptomycin (25 units/ml and 25 ug/ml, respectively), at which time CNTF was added. Medium was changed every three to four days, with re-addition of the factor.
To obtain neuron-enriched cultures, cytosine arabinoside (Ara-C, 0.3 uM) was added for a period of 24 hours. Under such condition, the hippocampal cultures contain approximately 5-10% glial cells, as assessed by GFAP immunohistochemistry.
Uptake of GABA into non-neuronal cells was inhibited by the additional of 2 mM B-alanine, whereas uptake specific for neurons is verified by inhibition with nipecotic acid at 1 mM.
(§4) The CNTF used in all assays was recombinant rat CNTF, expressed and purified as described in Example Section 12 supra.

[5] = system: E18-19 rat hippocampal neurons; test: Neurofilament protein in hippocampal cultures; assay type: cell-based
Protocol: as §3
Neurofilament protein was quantitated according to the method of Doherty et al. (1984, J. Neurochem. 42:1115-1122), as is described in Section 14.1.3.
as §4

[6] = gelfoam implant impregnated with CNTF, one week
[7] = gelfoam with 5 μg purified rat sciatic nerve CNTF, one week after lesion
[8] = single animals, gelfoam with 5 μg purified rat sciatic nerve CNTF, one week after lesion

B1: CNTF: ciliary neurotrophic factor; recombinant rat CNTF in Sections 10, 15, 17, purified rat sciatic nerve CNTF in Section 11; see endpoint conditions (protein, UniProt P20294 1-200, looked up)
Ciliary neurotrophic factor: MAFAEQTPLTLHRRDLCSRSIWLARKIRSDLTALMESYVKHQGLNKNINLDSVDGVPVASTDRWSEMTEAERLQENLQAYRTFQGMLTKLLEDQRVHFTPTEGDFHQAIHTLMLQVSAFAYQLEELMVLLEQKIPENEADGMPATVGDGGLFEKKLWGLKVLQELSQWTVRSIHDLRVISSHQMGISALESHYGAKDKQM
time ventral neurons survive in defined medium [1]: > 1 week
CAT Activity ([1]; NGF 50 ng/ml at plating, day 7): 959.5 ± 24.32 CPM/dish
Protein ([1]; NGF 50 ng/ml at plating, day 7): 45 μg/dish
cell survival following exposure to glutamate (hippocampal neurons): enhanced
facial nerve motorneurons rescued that would normally have died after axotomy ([2]; CNTF applied to cut stump of newborn rat facial nerve): at least 60%
loss of motorneurons ipsilateral to the lesion [2, 6]: ~30%
motorneuron pool ipsilateral to the lesion, of normal [2, 6]: 70%
gliosis in facial nuclei ipsilateral to lesion (anti-GFAP staining), versus BSA treated rats ([2]; gelfoam with 5 μg CNTF): comparable amount of gliosis
Count of motorneurons in the facial nerve nuclei, Contralateral (Control side), group mean (in brackets) [2, 7]: (3301)
Count of motorneurons in the facial nerve nuclei, Lesion-side, group mean (in brackets) [2, 7]: (2120)
Count of motorneurons in the facial nerve nuclei, Contralateral (Control side) [2, 8]: 3425 and 2990 and 3490
Count of motorneurons in the facial nerve nuclei, Lesion-side [2, 8]: 2205 and 3445 and 1270 and 3095
survival of MD neurons ([3]; 20 ng recombinant rat CNTF in 2 μl E. coli extract per ml at plating, by 48 hours): increased survival
μg protein dish ([3]; CNTF 2 μl/ml (recombinant rat, E. coli extract), NGF 50 ng/ml at plating, day 7, Bradford): 120 μg protein dish
protein/dish relative to untreated control and NGF-treated cultures ([3]; recombinant rat CNTF in E. coli extract, day 7): 6 times
increase in Gaba uptake at low plating density ([4]; 71,000 cells/cm2, CNTF 10 ng/ml, 8 days): approximately 2.6 fold
increase in Gaba uptake at higher plating density ([4]; 143,000 cells/cm2, CNTF 10 ng/ml): failed to induce a significant increase
concentration of CNTF required for a maximal response in GABA uptake ([4]; AraC-treated neuron-enriched cultures): 0.03 ng/mL
increase in Gaba uptake, CNTF added on the third day and cells treated for 8 days ([4]; CNTF 10 ng/ml): failed to induce increase in Gaba uptake
CNTF-induced increase in GABA uptake, addition delayed by one day ([4]; CNTF 10 ng/ml, assayed 7 days later): lowered
CNTF-induced increase in GABA uptake, addition on the third day after plating ([4]; CNTF 10 ng/ml, uptake on the eighth day in culture): no longer produced an increase in GABA uptake
increase in Gaba uptake versus untreated controls in AraC-treated cultures ([4]; neuron-enriched cultures, cytosine arabinoside 0.3 uM for 24 h, 8 days): 2.4 fold
concentration of CNTF required for a maximal response in GABA uptake ([4]; neuron-glia mixed cultures (−AraC)): 0.1 ng/mL
maximal increase in specific neuronal GABA uptake (dose response) ([4]; recombinant rat CNTF 0.1 ng/ml for 8 days): approximately 3 fold
maximal increase in specific neuronal GABA uptake versus untreated controls ([4]; recombinant rat CNTF 10 ng/ml, 8 days after addition, 71,000 cells/cm2): approximately 4 fold
concentration at which specific neuronal GABA uptake was increased ([4]; recombinant rat CNTF, 8 days): 0.01 ng/mL
effect on neurofilament protein, CNTF added on the third day and cells treated for 8 days ([5]; CNTF 10 ng/ml): much reduced
CNTF-induced increase in neurofilament protein, addition delayed by 3 days ([5]; CNTF 10 ng/ml, measured on the eighth day): similarly diminished
maximal increase in neurofilament protein ([5]; recombinant rat CNTF 10 ng/ml, day 8): approximately 5 fold
concentration at which neurofilament protein reaches a plateau ([5]; recombinant rat CNTF, 8 days): 0.1 ng/mL
